Results reported in US20240173424A1, “ANTI-NECTIN-4-ANTIBODY EXATECAN CONJUGATES” (EMERGENCE THERAPEUTICS AG, priority 2021, published 2024).

Tests used:
[1] = test system: SUM190PT cells; assay: SUM190PT orthotopic xenograft in NSG mice; type: in vivo, mouse; settings: SUM190 grafted NSG mice, single intravenous injection, 4 or 8 mg/kg
Description: Treatment of mice (single intravenous injection) started when tumors reached approximately 150 mm^3. […] Tumor sizes (n=10/group) were monitored with a caliper twice a week thereafter and sizes were reported with the following formula (LxlxhxPi/6).
NOD/SCID (nonobese diabetic/severe combined immunodeficient)/gc null mice (NSG) were obtained from Charles River Laboratory (Margate, UK). Six to seven-weeks old females (n=5/group) were orthotopically xenografted bilaterally with the SUM190PT (0.5×10^6) cells embedded in Matrigel. Treatment with ADC was performed as mentioned in the respective experiments. Tumor sizes (n=10/group) were monitored with a caliper twice a week thereafter and sizes were reported with the following formula (LxlxhxPi/6).

[2] = test system: human Nectin-4; assay: ELISA on coated Nectin-4 Fc fusion proteins (Nec4-VCC, Nec4-V); type: binding; settings: statement in FIG. 3 legend on the competitor mAbs
Procedure: Detection by ELISA. • Ninety-six-wells plates were coated, as indicated, with 5 μg/mL Nectin-1 extracellular domain Fc fusion recombinant protein (Nec1-VCC), or Nectin-4 IgV-like domain Fc fusion recombinant protein (Nec4-V), or Nectin-4 extracellular domain Fc fusion recombinant protein (Nec4-VCC) overnight at 4° ° C.
FIG. 3: Characterization of Ch-15A7.5 epitope. Competition assay was performed by ELISA. • Ninety-six-wells plates were coated with 5 μg/mL of Nectin-4 extracellular domain Fc fusion recombinant protein (Nec4-VCC) overnight at 4° C. Binding of peroxidase-conjugated Ch-15A7.5 mAb (5 μg/mL) was measured in presence of increasing concentrations (2.75 ng/ml-6 μg/mL) of Rituximab, Ch-15A7 mAb, Enfortumab (HA22), Ch-N41 mAb and Ch-14A5 mAb.
A sandwich enzyme-linked immunosorbent assay was used to control specificity of Ch-15A7.5 antibody and to perform competition assays between different mAbs. Ninety-six-wells plates were coated with 10 nM of Nectin-4-VCC-Fc, Nectin-1-VCC-Fc (entire extracellular part) or Nectin-4-V-Fc (comprising only the IgV domain) overnight at +4° C. After washes and saturation with PBS 1% BSA, cells were incubated for 2 hours at 25° C. with 10 nM of peroxidase-conjugated Ch-15A7.5 mAb. In the case of competition, binding of 0.5 nM of peroxidase conjugated Ch-15A7.5 mAb was measured in the presence of variable concentration (0.018 nM to 40 nM) of “cold” mAb. One hundred μL of peroxidase substrate was added (One Step ABST, Pierce), and OD was red at 405 nm.

[3] = test system: human Nectin-4; assay: Flow cytometry of MDA-MB231 transfected with Flag-tagged Nectin-4; type: binding; settings: MDA-MB231 transfected with Nectin-4, 0.3 ng/ml-5 μg/mL
Procedure: Detection by flow cytometry. • Flow cytometry analysis of MDA-MB231 transfected with the N-terminal Flag-tagged epitope of Nectin-4 using a dose range (0.3 ng/ml-5 μg/mL) of Ch-15A7.5 or Ch-5A12.2 antibodies Parental MDA-MB231 cells are included as controls. Cells were then stained with phycoerythrin conjugate goat anti human Fc antibody. The normalized mean fluorescence intensity is shown. Inlay: staining of parental MDA-MB231 cells with anti Nectin-1, -2 and -3 mAbs ([…]). Mean fluorescence intensity is represented.
Human breast carcinoma cell line MDA-MB231 (ATCC, Manassas, VA) was cultured in DMEM supplemented with 10% fetal bovine serum, 50 IU/mL penicillin, 50 μg/mL streptomycin and 2 mM glutamine. The cells were transfected with expression vector p3XFLR4.C1 containing a PVRL4 cDNA. Human triple negative breast cancer cell line SUM190PT (BioIVT, Westbury, NY) was cultures in Ham's F12 medium with 5% fetal bovine serum, 1% non-essential amino acids, 1% Hepes, 1% insulin, 1 μg/mL hydrocortisone, 6.8 ng/ml Triiodo L-tyrosine, 100 IU/mL penicillin, 100 μg/mL streptomycin and 2 mM glutamine. Chinese hamster ovary CHO cell line was cultured in DMEM supplemented with 10% fetal bovine serum, 100 IU/mL penicillin, 100 μg/mL streptomycin and 2 mM glutamine. […]

[4] = molecular target: T1, Nectin-4 expressed by tumors and Nectin-4 expressed by human keratinocytes (Homo sapiens, UniProt Q96NY8); assay: Differential binding to tumor cells and human keratinocytes; settings: in vitro differentiated Nectin-4 expressing keratinocytes
T1 construct: Cells or cell lines (10,000-50,000) expressing Nectin-4 (naturally or transfected); endogenous in cells; host or cells: SUM190/SUM190PT (also SUM149 in IHC), NHEK differentiated with 0.1 mM CaCl2, human skin sections
T1 sequence (Q96NY8 32-510): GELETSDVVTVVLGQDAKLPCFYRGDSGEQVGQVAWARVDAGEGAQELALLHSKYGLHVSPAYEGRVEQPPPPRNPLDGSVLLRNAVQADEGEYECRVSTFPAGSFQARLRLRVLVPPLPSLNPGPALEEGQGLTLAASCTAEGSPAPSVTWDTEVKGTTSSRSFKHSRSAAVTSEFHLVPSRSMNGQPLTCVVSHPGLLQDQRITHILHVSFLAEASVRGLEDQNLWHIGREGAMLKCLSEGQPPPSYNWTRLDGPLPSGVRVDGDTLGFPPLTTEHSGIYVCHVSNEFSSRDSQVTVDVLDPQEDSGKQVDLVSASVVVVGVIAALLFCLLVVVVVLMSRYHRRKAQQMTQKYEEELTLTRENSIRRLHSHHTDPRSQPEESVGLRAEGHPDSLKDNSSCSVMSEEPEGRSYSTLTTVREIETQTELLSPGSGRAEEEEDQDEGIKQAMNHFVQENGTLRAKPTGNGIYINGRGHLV
Description: FIG. 6: Differential binding to Nectin-4 expressed by tumor cell line and normal differentiated human keratinocytes. […] Cells were then stained with phycoerythrin conjugate goat anti human Fc antibody. Normalized mean fluorescence intensities are shown. Non-linear curve fitting (4 parameters) was done with GraphPad Prism 9 software. Horizontal bar is placed at 50% of maximum staining intensity obtained with HA22 antibody on SUM190 cells.
FIG. 7: Differential binding to Nectin-4 expressed by tumor cell line and normal differentiated human keratinocytes. Detection by flow cytometry. • Flow cytometry analysis of TNBC cell line (SUM190, A) and normal differentiated (0.1 mM CaCl2) human keratinocytes (NHEK, B) using 5 μg/mL of HA22 (Enfortumab), Ch-5A12.2, Ch-15A7.5, and Ch-8F06. Cells were then stained with phycoerythrin conjugate goat anti human Fc antibody. Normalized mean fluorescence intensities are shown.
FIG. 8: Differential binding to Nectin-4 expressed by tumor cell line and human keratinocytes. Detection by immuno-histochemistry. Cryo-preserved OCT-embedded blocks of high expressing levels of Nectin-4 tumor cell line (SUM190), low expressing levels of Nectin-4 tumor cell line (SUM149), human and cynomolgus skin were processed for staining with 15A7.5 mAb (A) and 9A2.7 mAb (B). Quick score reported for each mAb are shown (A, B). C, ratio of quick score SUM190 over human skin. […]
Remaining blocks were stored at −80° C. until further use. […] Several dilution of each mAb were tested to optimize noise to signal ratio and 0.5 μg/ml of mouse 15A7.5 mAb and 10 µg/mL of mouse 9A2.7 mAb were determined as optimal. […] Both the stained cells proportion and the staining intensity were evaluated for each field. […] Scoring procedure was as follows: (i) The proportion of cells stained positively was estimated and a score from 0 to 4 was be assigned for each field (0=0-5%; 1=5-25%; 2=25-50%; 3=50-75%; and 4=75-100%); and (ii) The staining intensity was scored as 0, 1, 2, or 3 corresponding to the presence of negative, weak, intermediate, and strong brown staining, respectively. […]

B1: HA22-MC-GGFG-DX8951 (conjugate, chains of the INN, looked up)
VH: EVQLVESGGGLVKPGGSLKLSCAASGFAFSIYDMSWVRQTPEKCLEWVAYISSGGGTTYYPDTVKGRFTISRDNAKNTLYLQMSSLKSEDTAMYYCARHSGYGTHWGVLFAYWGQGTLVTVSA
VL: DIQMTQTTSSLSASLGDRVTISCRASQDISNYLNWYQQKPDGTVKLLIYYTSILHSGVPSRFSGSGSGTDYSLTISNLEQEDFATYFCQQGNTLPWTFGCGTKLEI
modifications: MC-GGFG-DX8951 (exatecan) payload
tumor regression [1]: induces a long-lasting tumor regression period

B2: HA22: human monoclonal anti-Nectin-4 antibody described in WO2012/047724, antibody of Enfortumab vedotin (antibody, V domains shown)
VH: EVQLVESGGGLVQPGGSLRLSCAASGFTFSSYNMNWVRQAPGKGLEWVSYISSSSSTIYYADSVKGRFTISRDNAKNSLSLQMNSLRDEDTAVYYCARAYYYGMDVWGQGTTVTVSS
VL: DIQMTQSPSSVSASVGDRVTITCRASQGISGWLAWYQQKPGKAPKFLIYAASTLQSGVPSRFSGSGSGTDFTLTISSLQPEDFATYYCQQANSFPPTFGGGTKVEIK
recognition of the IgV domain of Nectin-4 [2]: recognize the IgV domain of Nectin-4

B3: Ch-5A12.2: chimeric antibody of 5A12.2 (antibody, V domains shown)
VH: QIQLQQSGAELVKPGASVTLSCKTSGFTFNSMYISWLKQKPGQSLEWIAWIYAGTGGTRFNQKFTGKVQLTVDTSSSTAYMQFSSLTTDDSAIYYCAIRSGFVPMDYWGQGTSVTVSS
VL: SIVMTQTPKFLLVSAGDRVTITCKASQSVSNDVAWYQQKPGQSPKLLIYYASNRYTGVPDRFTGSGYGTDFTFTISTVQAEDLAVYFCQQDYSSPWTFGGGTKLEIK
recognition of human Nectin-4 [3]: recognize human Nectin-4

B4: mAb 3A1.4: monoclonal anti-Nectin-4 antibody characterized by SEQ ID NO:s 96-103 (antibody, V domains shown)
VH: DVQLQESGPSLVKPSQTLSLTCSVTGDSITSGYWNWIRKFPGNKLEYMGYISNSGITYYNPSLKSRISITRDTSKNQYFLQLNSVTAEDTATYYCTRFGSTMILYYTMDYWGQGTSVTVSS
VL: DIVMTQSPVTLSVTPGDRVSLSCRASQSISDYLHWYQQKSQESPRLLIKYASKSISGIPSRFSGSGSGSNFTLSINSVEPEDVGVYYCQNGHSFPLTFGAGTKLELK
modifications: VH_3A1.4; VK_3A1.4
affinity to Nectin-4 expressed by tumors in comparison to Nectin-4 expressed by human keratinocytes [4]: higher affinity
